Source: publication PMC8938504

Experiments:
[1] = biological target: MBP:RGA5_HMAm1m2 (rice (Oryza sativa)) (UniProt F7J0N2); assay: SPR; […] (single-cycle kinetics, […]; 25 °C; 20 mM Tris pH 8, 150 mM NaCl, 0.5 mM DTT; […]
the engineered RGA5_HMAs = assay: as above
[2] = biological target: MBP:RGA5_HMA (wild-type HMA domain of RGA5 fused to maltose-binding protein) (rice (Oryza sativa)) (UniProt F7J0N2); assay: SPR; single-cycle kinetic titration, Biacore T200, 25 °C; […]; 20 mM Tris pH 8, 150 mM NaCl, 0.5 mM DTT, 0.05% P20; steady-state model

6×His-tagged AVR1-CO39 (natural protein)
Kd [1]: 6.3 µM

6×His-tagged AVR-Pia (natural protein)
Kd [1]: 5.9 µM

6×His-tagged AVR-PikD (from UniProt C4B8B8 22-113) (natural protein)
Kd (the engineered RGA5_HMAs): 0.0005 to 0.0016 µM

AVR-PikD (dSP-AVR-PikD, His-tagged) (natural protein)
Kd [2]: 8.32 µM
